Consider one molecule from US20240336664A1, “SULFATED POLYPEPTIDES FOR SYSTEMIC DELIVERY” (priority 2021, published 2024).

The data set concerns C2C12 mouse myoblasts. Briefly: Luciferase reporter expression from muscle promoters. The format is cell-based. The note with it: 48 hours post transfection, FIG. 6. From the text: The present Example includes the recognition that certain promoters utilized herein have advantageous characteristics for expression of operably linked coding sequences in muscle cells, as exemplified in the present Example in C2C12 mouse myoblasts as a representative muscle cell type. In the present Example, a luciferase reporter construct was expressed in C2C12 mouse myoblasts using each of three promoters. Cells were mock transfected or transfected with vectors expressing luciferase using Lipofectamine LTS Plus reagent in a 96-well plate. 48 hours post transfection luciferase activity was measured using ONE-Glo™ Luciferase Assay System (E6110, Promega).
In general terms: In a reporter assay the amount or activity of a reporter protein is the signal.

B1: SEQ ID NO: 3: promoter nucleic acid sequence driving a luciferase expression construct in muscle cells (nucleic acid)
DNA: CAGGCCCTGTAACTTTTCCAATAAAATATTCTATTAGAAACAAGTTCCTTCTAGATCTTCCTAAAAGAATACTAAAGGACCAAACCGTGCAACAGCACTGGTGGTATTGTCTTAATTTAGAGAGTCCATACCAGTGATTCTCAAACATTAGTATGCTCAGAGTTTCTGGTTCAATAGGTCTGGGCCGGGCCCAGGGAATTTTCATTTCTAAGAAGTTCGCAGGTGATACTGATAACTGCTGTTCCCAGGGTCTACATTTTGAGATCCGCTGCTATGTCACAAATCCAAATCCAAAGTCTTTTTAACAATCCCTTTTAGCCCAGGATGAGCCTAACGGCAATTTCACGTCCTTATCGCCGGCCACTTTAATCTTCAACTGAGGAGGAAGGGAGAGTGAGAATTATGTATATAATTTTTTTCTTTTATTTTTTAAAAAGAAAACTCCAAGCCCACACTCTTAATTATCTGGGATGAGGTCATTTGCACCTGGGTCATTTATTTAGACAACAAGTAGTCTTGCTAGAGGCTTTAAGGAGGTGTTAGCAGAGCGGTGTGTGGCTTCCAGGTTCCTGGGTCTACCTTAAATCCCCATCCTCTTTCTTTCTTTCTTTCTTTCTTTCTTTCTCTTTTCTTTTTCCTTTCCGTTTTGAAAGCCCCAACTGCCCAGTCTCTGGGTGTCCGGGTTCCCAGGTCCCTAGGTGGGGGCGGAGCCCGACACGGCCCCGCCCCGTCTGCCCGCAGCGCCCCCTCCCCGGCCCGCCCGCGCCGGCTCCTCCGCAGTGCTTTCAGCTGTGAGCTTGGGCGGCGGCGGCGGCGGCGCTCCACTTTCGGGGAGCCCGGCGGCTCTGGGAAGCTCACTCCTCCACTCGTACCCACACTCGACCGCGGAGCCCTTGCAGCCATGAGGGAACAGCTCAAAGGGTAAGTGGA
As for B1, the “luciferase expression vs promoters SEQ ID NO: 4 and SEQ ID NO: 5 and mock” value was “substantially greater expression”.
